Here are results for one molecule from publication PMC6069114, “Fungal Light-Oxygen-Voltage Domains for Optogenetic Control of Gene Expression and Flocculation in Yeast” (mBio, 2018).

Assay [1] has as its target T1, LOV domain of White Collar 1 (WC-1) bound to the Gal4 DNA binding domain (Neurospora crassa, UniProt Q01371 381-508).
T1 construct: White Collar 1 (WC-1), blue-light photoreceptor of Neurospora crassa; LOV domain only; also called WC-1 LOV-BD; WC-1 LOV plus GAL4-DBD; source: yeast two-hybrid fusion; S. cerevisiae BY4741 (wt or gal4Δ-gal80Δ), episomal pRS423, ADH1 promoter
T1 sequence (looked up): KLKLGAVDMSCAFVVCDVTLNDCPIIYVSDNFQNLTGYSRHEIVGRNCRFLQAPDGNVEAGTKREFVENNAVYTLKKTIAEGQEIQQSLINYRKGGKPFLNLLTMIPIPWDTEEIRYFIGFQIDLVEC
The assay is described as follows: two-hybrid; FUN-LOV switch in S. cerevisiae; luciferase activity in protein extracts of cells grown 8 h in constant light (LL) against constant darkness (DD), normalised to total protein. To be noted: partners not purified.

The target of assay [2] is T1, LOV domain of White Collar 1 (WC-1) …. The assay is described as follows: two-hybrid; FUN-LOV switch in S. cerevisiae; destabilized firefly luciferase reporter under P_(GAL1) or P_(5XGAL1); luminescence of living cells normalised by OD600; constant white light (100 µmol m^-2 s^-1) or constant blue light (20 µmol m^-2 s^-1), 30°C; fold induction against the average background in constant darkness. To be noted: partners not purified. (In general: Reporter assays use an easily measured gene product as a stand-in for the process of interest.)

B1: full-length VIVID (VVD) tethered to the Gal4 transactivation domain (natural protein, Neurospora crassa, UniProt Q9C3Y6 1-186, looked up)
chain: MSHTVNSSTMNPWEVEAYQQYHYDPRTAPTANPLFFHTLYAPGGYDIMGYLIQIMNRPNPQVELGPVDTSCALILCDLKQKDTPIVYASEAFLYMTGYSNAEVLGRNCRFLQSPDGMVKPKSTRKYVDSNTINTMRKAIDRNAEVQVEVVNFKKNGQRFVNFLTMIPVRDETGEYRYSMGFQCETE
notes: VIVID (VVD), blue-light photoreceptor of Neurospora crassa; full-length VVD and not just VVD-36; also called VVD-AD; VVD plus GAL4-AD; source: yeast two-hybrid fusion; S. cerevisiae BY4741 (wt or gal4Δ-gal80Δ), episomal pRS425, ADH1 promoter
Turning to B1, the “fold induction of luciferase activity in protein extracts, LL over DD” value in assay [1] is about 2500 fold. In assay [2], the “fold induction of the luciferase reporter, blue light over darkness (P_(5XGAL1))” value was determined as 1320 fold and the “fold induction of the luciferase reporter, white light over darkness (P_(5XGAL1))” value worked out at 1220 fold.
